Laboratory results taken from the supplement of paper PMC7125110.
± gives the standard error. For some assays here: Variants at the floor of the assay were thinned out.

B1: glmS ribozyme (parent)
chain: AUAAAAGCGCCAGAACUACAGAAAUGUAGUUGACGAGGAGGAGGUUUAUCGAAUUUUCGGCGGAUGCCUCCAAA

Key:
Conditions in all cases: with glucosamine-6-phosphate
glucosamine-6-phosphate [1] = variants of: B1; test: kcat; higher = faster cleavage; RNA array
In short: (§1)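 Tiles of sequenced MiSeq chips were imaged over ~14 h at 37 °C. On them, barcoded ribozyme variants had been transcribed in situ by E. coli RNA polymerase and were tracked via a hybridised Cy3 probe while glucosamine-6-phosphate (40 μM to 10 mM) in HEPES/KCl/Mg(OAc)2 buffer flowed in. Per-tile medians, normalised to baseline and to non-cleaving reference variants, were fit to one- or two-exponential decays for kobs, and weighted Michaelis–Menten fits gave kcat and KM.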

glucosamine-6-phosphate [2] = variants of: B1; test: KM; higher = weaker cofactor use; RNA array
In short: as §1

glucosamine-6-phosphate [3] = variants of: B1; test: self-cleavage kobs at 2500 uM GlcN6P; higher = faster cleavage; RNA array
In short: as §1

glucosamine-6-phosphate [4] = variants of: B1; test: self-cleavage kobs at 10000 uM GlcN6P; higher = faster cleavage; RNA array
In short: as §1

glucosamine-6-phosphate [5] = variants of: B1; test: self-cleavage kobs at 40 uM GlcN6P; higher = faster cleavage; RNA array
In short: as §1

glucosamine-6-phosphate [6] = variants of: B1; test: self-cleavage kobs at 640 uM GlcN6P; higher = faster cleavage; RNA array
In short: as §1

glucosamine-6-phosphate [7] = variants of: B1; test: self-cleavage kobs at 160 uM GlcN6P; higher = faster cleavage; RNA array
In short: as §1

| Variant | kcat (glucosamine-6-phosphate [1]) | KM (glucosamine-6-phosphate [2]) | self-cleavage kobs at 2500 uM GlcN6P (glucosamine-6-phosphate [3]) | self-cleavage kobs at 10000 uM GlcN6P (glucosamine-6-phosphate [4]) | self-cleavage kobs at 40 uM GlcN6P (glucosamine-6-phosphate [5]) | self-cleavage kobs at 640 uM GlcN6P (glucosamine-6-phosphate [6]) | self-cleavage kobs at 160 uM GlcN6P (glucosamine-6-phosphate [7]) |
| --- | --- | --- | --- | --- | --- | --- | --- |
| A6C A53U | 8.96e-05 ± 2.4e-06 s⁻¹ | 3600 ± 220 µM | 3.64e-05 ± 7.4e-06 s⁻¹ | 6.61e-05 ± 1.1e-05 s⁻¹ |  |  |  |
| A6C U69C | 3.1e-05 ± 9.9e-06 s⁻¹ |  | 4.93e-05 ± 2e-05 s⁻¹ |  | < 1e-05 s⁻¹ |  |  |
| A6U A39U | 0.000104 ± 2.7e-06 s⁻¹ | 2160 ± 150 µM | 5.5e-05 ± 7.8e-06 s⁻¹ | 8.67e-05 ± 1.1e-05 s⁻¹ |  | 2.53e-05 ± 8.4e-06 s⁻¹ |  |
| A6U A39G | 0.000267 ± 2.8e-05 s⁻¹ | 5030 ± 1100 µM | 9.44e-05 ± 1.8e-05 s⁻¹ | 0.000175 ± 2.6e-05 s⁻¹ |  |  |  |
| C10G C58U | < 1e-05 s⁻¹ |  |  | < 1e-05 s⁻¹ | < 1e-05 s⁻¹ | < 1e-05 s⁻¹ |  |
| C8U C10U | < 1e-05 s⁻¹ |  |  |  | < 1e-05 s⁻¹ | < 1e-05 s⁻¹ |  |
| C10U C50A | < 1e-05 s⁻¹ |  |  | < 1e-05 s⁻¹ | < 1e-05 s⁻¹ |  |  |
| A6G A42G | 0.000724 ± 0.00013 s⁻¹ | 2730 ± 960 µM | 0.000329 ± 4.6e-05 s⁻¹ | 0.000569 ± 5.1e-05 s⁻¹ |  | 0.000175 ± 2.3e-05 s⁻¹ | 2.26e-05 ± 1.1e-05 s⁻¹ |
| C11A U30G | 0.000664 ± 7.4e-05 s⁻¹ | 6140 ± 920 µM | 0.000172 ± 5.6e-05 s⁻¹ | 0.000422 ± 9.6e-05 s⁻¹ |  | 6.39e-05 ± 1.1e-05 s⁻¹ |  |
| C10A C67U C71G | 2.93e-05 ± 1.4e-05 s⁻¹ |  |  |  |  |  |  |
| C10U G63A | < 1e-05 s⁻¹ |  | < 1e-05 s⁻¹ |  |  | < 1e-05 s⁻¹ |  |
| A6U C16G U55A | 1.73e-05 ± 5.1e-06 s⁻¹ |  |  |  |  |  |  |
| A6G G43C C68G | 0.000785 ± 0.00019 s⁻¹ | 1000 ± 470 µM | 0.000399 ± 0.00011 s⁻¹ | 0.000819 ± 0.00015 s⁻¹ | 3.71e-05 ± 1.7e-05 s⁻¹ | 0.000423 ± 8.3e-05 s⁻¹ | 9.17e-05 ± 2.6e-05 s⁻¹ |
| A6C U54G | 0.000119 ± 4.3e-06 s⁻¹ | 4980 ± 410 µM | 3.94e-05 ± 9.9e-06 s⁻¹ | 7.93e-05 ± 1.1e-05 s⁻¹ |  |  |  |
| C10G C67U | < 1e-05 s⁻¹ |  |  |  | < 1e-05 s⁻¹ |  |  |
| A6U G59A C68U | 1.04e-05 ± 3.6e-06 s⁻¹ |  |  |  |  |  |  |
| A6U A23C U30G | 5.38e-05 ± 1.9e-06 s⁻¹ | 2780 ± 300 µM |  | 4.19e-05 ± 1.6e-05 s⁻¹ |  |  |  |
| C10U A14U | < 1e-05 s⁻¹ |  |  |  | < 1e-05 s⁻¹ |  |  |
| C10U A14G | 0.000181 ± 2.4e-05 s⁻¹ | 2130 ± 650 µM | 8.95e-05 ± 8.6e-06 s⁻¹ | 0.000159 ± 1.6e-05 s⁻¹ |  | 5.02e-05 ± 7.8e-06 s⁻¹ |  |
| G9C G37C | 1.88e-05 ± 8.6e-06 s⁻¹ |  |  | < 1e-05 s⁻¹ |  |  |  |

| Variant | kcat (glucosamine-6-phosphate [1]) | KM (glucosamine-6-phosphate [2]) | self-cleavage kobs at 2500 uM GlcN6P (glucosamine-6-phosphate [3]) | self-cleavage kobs at 10000 uM GlcN6P (glucosamine-6-phosphate [4]) | self-cleavage kobs at 40 uM GlcN6P (glucosamine-6-phosphate [5]) | self-cleavage kobs at 640 uM GlcN6P (glucosamine-6-phosphate [6]) | self-cleavage kobs at 160 uM GlcN6P (glucosamine-6-phosphate [7]) |
| --- | --- | --- | --- | --- | --- | --- | --- |
| C11A A64G | 0.000168 ± 1.1e-05 s⁻¹ | 1190 ± 250 µM | 0.000135 ± 2.7e-05 s⁻¹ | 0.000147 ± 1.6e-05 s⁻¹ |  | 5.53e-05 ± 1.3e-05 s⁻¹ |  |
| C10U U56A | 2.68e-05 ± 5.7e-06 s⁻¹ |  | 3.47e-05 ± 1.4e-05 s⁻¹ |  | < 1e-05 s⁻¹ |  |  |
| C11A A53U | 0.000128 ± 2.5e-06 s⁻¹ | 2860 ± 180 µM | 6.02e-05 ± 1.6e-05 s⁻¹ | 9.96e-05 ± 1.2e-05 s⁻¹ |  |  |  |
| A6G G32U | < 1e-05 s⁻¹ |  |  |  | < 1e-05 s⁻¹ |  |  |
| A1U U2G A3G A5U | 0.0105 ± 0.0015 s⁻¹ | 1320 ± 260 µM | 0.006 ± 0.0016 s⁻¹ | 0.0103 ± 0.0017 s⁻¹ | 0.000338 ± 5.7e-05 s⁻¹ | 0.00274 ± 0.00078 s⁻¹ | 0.00116 ± 0.00022 s⁻¹ |
| G9U U47C | < 1e-05 s⁻¹ |  | < 1e-05 s⁻¹ |  |  | < 1e-05 s⁻¹ | < 1e-05 s⁻¹ |
| C10G U56A | < 1e-05 s⁻¹ |  |  |  |  | < 1e-05 s⁻¹ | < 1e-05 s⁻¹ |
| C11A G44U G59U | 0.000238 ± 5.3e-06 s⁻¹ | 1330 ± 77 µM | 0.00015 ± 4.7e-05 s⁻¹ | 0.000212 ± 4e-05 s⁻¹ |  | 7.85e-05 ± 2.2e-05 s⁻¹ |  |
| C11A A52G C58G | 1.09e-05 ± 2.8e-06 s⁻¹ |  |  |  |  |  | < 1e-05 s⁻¹ |
| C10U A12G | 2.19e-05 ± 1.8e-06 s⁻¹ | 2150 ± 870 µM |  |  |  |  |  |
| C10A C50U | < 1e-05 s⁻¹ |  |  | < 1e-05 s⁻¹ |  |  |  |
| A6C C10U C67G U69A | 2.09e-05 ± 8.6e-06 s⁻¹ |  |  |  |  |  |  |
| A6G C67A | 0.00012 ± 9e-06 s⁻¹ | 3130 ± 670 µM |  | 9.19e-05 ± 1.6e-05 s⁻¹ | < 1e-05 s⁻¹ |  |  |
| A6U U31G | 8.41e-05 ± 1e-05 s⁻¹ |  | 7.42e-05 ± 1.9e-05 s⁻¹ | 7.27e-05 ± 1.2e-05 s⁻¹ | < 1e-05 s⁻¹ |  |  |
| A6U U31A | 0.000122 ± 2.6e-05 s⁻¹ |  | 8.83e-05 ± 2.1e-05 s⁻¹ | 9.85e-05 ± 2.2e-05 s⁻¹ |  |  |  |
| C10U C68G | 2.34e-05 ± 4.7e-06 s⁻¹ |  | 2.5e-05 ± 7.6e-06 s⁻¹ |  |  |  |  |
| C8A G37U C70A | 0.00017 ± 4.3e-05 s⁻¹ |  | 0.000331 ± 0.00011 s⁻¹ | 0.000139 ± 3.4e-05 s⁻¹ | 7.9e-05 ± 2.3e-05 s⁻¹ | 0.000214 ± 6.2e-05 s⁻¹ |  |
| G9A C67A | < 1e-05 s⁻¹ |  |  |  | < 1e-05 s⁻¹ |  | < 1e-05 s⁻¹ |
| C8U U49A | < 1e-05 s⁻¹ |  | < 1e-05 s⁻¹ | < 1e-05 s⁻¹ | < 1e-05 s⁻¹ | < 1e-05 s⁻¹ |  |
